# Reference: the supplement of paper PMC9170038
# Legend:
# MS2 coat protein = assay: apparent KD of MS2 coat protein; higher = weaker reporter binding; details: Eterna round: R107
# Method: (§1)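 RNA-MaP round R107: designed RNA switches with theophylline, tryptophan, arginine or FMN aptamers are transcribed on-chip within common flanks. They are titrated with SNAP-549-labelled MS2 coat protein in RNA-MaP buffer (100 mM Tris pH 7.5, 80 mM KCl, 4 mM MgCl2), without ligand or with the indicated ligand. Median apparent KD per design.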
# [1] = system: K4 kissing-loop RNA reporter; assay: apparent KD of K4 kissing-loop reporter; higher = weaker reporter binding; details: Eterna round: R107;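 note: bound reporter read as fluorescence of individual clusters on recovered sequencing chips by microscopy, with normalized cluster intensities fitted with a binding model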
# Method: as §1, with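 “a labelled K4 kissing-loop RNA reporter” for “SNAP-549-labelled MS2 coat protein”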
# [2] = input ligand: theophylline 20 uM
# [3] = input ligand: tryptophan 2.4 mM
# [4] = input ligand: theophylline 2 mM
Sequence,apparent KD of MS2 coat protein (MS2 coat protein; input ligand: arginine 13.2 mM) [nM],apparent KD of MS2 coat protein (MS2 coat protein; [2]) [nM],apparent KD of MS2 coat protein (MS2 coat protein; [3]) [nM],apparent KD of MS2 coat protein (MS2 coat protein; input ligand: none) [nM],apparent KD of MS2 coat protein (MS2 coat protein; [4]) [nM],apparent KD of K4 kissing-loop reporter ([1]; input ligand: FMN 200 uM) [nM],apparent KD of K4 kissing-loop reporter ([1]; input ligand: arginine 13.2 mM) [nM],apparent KD of K4 kissing-loop reporter ([1]; input ligand: none) [nM],"apparent KD of K4 kissing-loop reporter [1, 2] [nM]","apparent KD of K4 kissing-loop reporter [1, 3] [nM]"
UUUUUUAACAUGGCGUAUCGGAAAACCGAUACCAGUACAGAAAUGUACCCUUGGCAGCGGCGUUUUACAUGAGGAUCACCCAUGU [Ex Theophylline A 3],21.2,65,27.7,,,,,,,
AACCGAGGCUAUCCUCUAAGACUAUGUGAUACCAGAAUAAUUUUAUUCCCUUGGCAGCAUGACAUGAGGAUCACCCAUGUCUCUU [SSTheo A #8],21,27.4,26,,,,,,,
GCUACAUGAGGAUCACCCAUGUCAGCUACACGAGGACCGGUACGGCCGCCACUCGGUAGCGCUCAUCCUCGUGUGUAAGUCAAGU [Xedier],48.2,116,23.5,81.6,97.5,,,,,
UGCCUAGACGUGGAUUACCCGUGUACCGAAGGAGCGCCCGAAAGGGCAGGUAGGUCGCGGAGGACAUGAGGAUCACCCAUGUUUG,44.8,123,88.5,117,134,,,,,
AAUUCCUCACAUGAGGAUCACCCAUGUGAAGGAGCGCCGAAUAAGGCAGGUAGGUCGCACAUGGAAACCGCUGCGAAAGCAGCAA [MAT - Exclusion Arginine A - Mod of Eli - D25],21,33.2,24.5,21.7,25,,,,,
GGUCUCGAGGGCGAUACCAGCUUGAUCGUACUGGCCUGGUACAUGAGGAUCACCCAUGUAAGCCCUUGGCAGCGCGCUCGAGACC [#1 Exclusion - Theophylline B Attempt #6 (HarryS)],7.85,18.5,17,11,29.3,,,,,
AACGUUUUGAGAAGGAGCGCGAUAAGCAGUGAUGUUGCUAUAAUUCUAUUUCUAUUUAAUUCGCAGGUAGGUCGCUCAAUACGUA [JR_SSArginiB_Sub019],,,,,,136,134,134,138,119
AGCAUUUUCAGAAGGAGCGUGAAUUAUUCUUAAUUAUAUUAUACGAGUGAUGUUCGUGUUUCACAGGUAGGUCGCUGAUAUAGCA [JR_SSArginiB_Sub004],,,,,,51.4,90.3,47.7,98.3,45.5
UUGAUAUGAUAGUAUCUUGUUUGAUAAAGGCAGGAUAUCGUAUAUUUGAGAAGGGCCAUUAUAUGCAGUGAUGUUGCAAAUAAGU [Exclusion FMN A Gf 25],,,,,,43.5,56.7,41.3,61.4,40
CCCUUAGACUCGGCCGCCACUCGUACCGAGAGCAUGCCACCCAUUAGUGAUGUUAAUUUGUCCUUGAGGACCGGGAGCCUAGGAA [theeternabot_exclusion_KL_Trp_B_44],,,,,,941,789,980,986,822
UGAUACCAGACGGCCGCCACUUCUGCAAGUCAAAGACUUGCCAAGGGAAUCGUCCAGUGAUGUUGGAGGACCGGGUCUGGUAUCU [FiskerMod 3 - Jieux - Exclusion - Tryptophan B],,,,,,880,445,817,585,668
GCUCGUCAUGUCAGCGGUGGUACUGUCGAUACCAGUGCCGUAAGGCGCCCUUGGCAGCGAUGCGCUGGAGUGAUGUUCCAGCGUU [#2 Exclusion - Theophylline A Attempt #32 (HarryS)],,,,,,110,92.9,116,120,119
GUGCAGUGAUGUUGCACGAGGAAAGACGAUACCAGCCGUAAAUAAGGCCCUUGGCAGCGUGGACUAGCAUAAAGUAUGCUAGCCU [Isenaonle],,,,,,118,104,123,116,96.5
ACUAAGGUUUUUGGAGCAGUGAUGUUGCUCCGAGGACCGGUACGGCCGCCACUCGGUGCAUGUAUGCGCUUCACUCCGGAAGUUG [Bieron],,,,,,152,140,165,148,139
GAUUGUGAUGGAAACAUCGCAAUCUCUGAAGGAGCGCGUGAAAACGCAGGUAGGUCGCAGGACGACUAUGACAGUGAUGUUGUCG [Ex Arginine A K4 3],,,,,,189,216,190,207,189
CCAACAACGAGUGAUGUUCGUUGAUCUGAAGGAGCGUCAAUAAUGACAGGUAGGUCGCAGAUAAUUGGAUAUAGGGCAAUAGCUC [Same State Arginine A GF13],,,,,,109,116,125,115,102
GAAUUAUGUAGAAGGAGCGUUAGAAGGUAUAGGUGCGAGUGAUGUUUGGACUUGUUAAUUUGACAGGUAGGUCGCUACAGAAGGA [KL-SSArg B19 #analogue],,,,,,496,281,499,379,451
GCCGUAGAUGGAAGGAGCGAGGUAGACUGUUGAAGUGAUGUUUCAACUCAUUAAGCCCAACCUCAGGUAGGUCGCCAUCUACGGC,,,,,,133,110,115,118,115
GCGAUCUGCAUCGAUACCAGCCCAGUGAUGUUGGGCUGCUCUCCAUGGGUGCCAGACACGGGCCCUUGGCAGCGAGGUAGAGCCC [Maonzaa],,,,,,129,118,109,112,115
GCCGUACGCAUGGAUACCAGCAAUUAUGCUCGUGAUCUAGUGAUGUUAGUGGCGAAAGUUUGCCCUUGGCAGCCAUGCGUACGGC,,,,,,224,172,244,134,182
